Test results taken from publication PMC3701042, “Structural Studies of a Bacterial tRNA^HIS Guanylyltransferase (Thg1)-Like Protein, with Nucleotide in the Activation and Nucleotidyl Transfer Sites” (PLoS ONE, 2013).

Columns and labels:
[1] = biological target: Bacillus thuringiensis tRNA^His guanylyltransferase (Thg1)-like protein (TLP) (Bacillus thuringiensis); experiment: crystal structure; BtTLP co-crystallised with ~2 mM GTP; tetragonal crystals, space group P4_(1), 2.96 Å; four monomers per asymmetric unit
[2] = biological target: Bacillus thuringiensis tRNA^His guanylyltransferase (Thg1)-like protein (TLP) (Bacillus thuringiensis); experiment: crystal structure; BtTLP co-crystallised with ~1 mM ATP; orthorhombic crystals, space group C222_(1), 2.35 Å; four molecules per asymmetric unit (two dimers)

**Q.** For “Bacillus thuringiensis tRNA^His guanylyltransferase (Thg1)-like protein (TLP) (enzyme)”, which stoichiometry N [1] is on record?
**A.** 4

**Q.** And the stoichiometry N [2]?
**A.** 4
